In patent publication US20040072753:

Columns and labels:
Aβ 25-35 = tested on: T1, Aβ 25-35
T1 sequence: GSNKGAIIGLM

[1] = tested on: T2, histone H1 peptide substrate PKTPKKAKKL
T2 sequence: PKTPKKAKKL

## recombinant p34-cdc2/cyclin B1 (Promega)
Aβ 25-35
  incorporation of 32P from γ32P-ATP: Aβ 1-42, Aβ 1-40 and Aβ 25-35 incorporated 32P from γ32P-ATP
[1]
  Michaelis constant (KM) for the phosphorylation: a KM of 2.7 µM for the H1 peptide substrate
Aβ 1-42
  incorporation of 32P from γ32P-ATP: Aβ 1-42, Aβ 1-40 and Aβ 25-35 incorporated 32P from γ32P-ATP
Aβ 1-40
  incorporation of 32P from γ32P-ATP: Aβ 1-42, Aβ 1-40 and Aβ 25-35 incorporated 32P from γ32P-ATP
